Measured values taken from US20030049258A1, “Method of increasing the contractility of a heart, a heart muscle or cells of a heart muscle” (priority 2001, published 2003).

Key:
[1] = tested on: adult ventricular cardiomyocytes; experiment: Intracellular cAMP formation in cardiomyocytes (ELISA); type: cell-based, rabbit
Method: (§1) Single calcium-tolerant ventricular myocytes were isolated from White New Zealand rabbits. Cardiomyocytes from healthy or failing rabbit hearts were isolated according to the same protocol (Laugwitz et al. (2001) Circ Res. 88, 688-95). Briefly, the hearts were perfused and digested with collagenase. The isolated cardiomyocytes were then resuspended and cultured in modified M199 on laminin-precoated dishes (5-10 μg/cm^2) at a density of 1.5×10^5 cells per cm^2 (at 5% CO2 and 37° C.). The cells were infected with adenovirus (multiplicity of infection (moi) 1 pfu/cell) 5 hours after plating. 50-60% of the infected cardiomyocytes express the transgene at this titer. Cardiomyocytes were harvested 48 hours after adenoviral infection. The cells were homogenized and cytosolic extracts were then used for western bloffing by using a polyclonal rabbit antibody raised against phosducin. Goat anti-rabbit second antibodies by Dianova, Germany, were used as second antibodies.
Intracellular cAMP formation in cardiomyocytes: The effects of nt-del-phosducin expression on G protein-mediated signalling are shown based on the measurement of cAMP accumulation in isolated cardiomyocytes after ex vivo gene transfer. Cardiomyocytes were investigated 48 hours after adenoviral infection. The cells were harvested and stimulated with increasing concentrations of isoproterenol for 20 minutes. […]

[2] = tested on: adenylyl cyclase; conditions: compared to controls in different cell types and tissues (Bauer et al. 1992; Schulz et al. 1996); cited from earlier work
[3] = tested on: transgenic heart failure model (β1-TG4); experiment: Transgenic mouse overexpressing full-length phosducin cross-bred with heart failure model (histology); type: in vivo; conditions: heart-failing mice vs heart-failing mice cross-bred with overexpressing mice
Method: FIG. 8 Histological alterations in transgenic mouse hearts. Hematoxylin/eosin-stained 5 μm sections of paraffin-embedded left ventricular myocardium from healthy wild-type mice and from a transgenic heart failure model (,β-TG4”, see Engelhardt et al. (1999) Proc. Natl. Acad. Sci. USA 96, 7059-64). […] The sequence of full-length phosducin was cloned into a plasmid as described by Engelhardt et al. (1999) Proc. Natl. Acad. Sci. USA 96, 7059-64. The purified linear DNA (1 μg/μl) was injected into fertilized oocytes from superovulated FVB/N mice according to standard procedures. The injected oocytes were transferred to the oviducts of pseudopregnant CD-1 mice. All mice were kept in a specific pathogen-free facility. Generation and investigation of these mice was approved by the responsible government authorities. The F0 generation was screened for integration of the transgene by PCR using specific primers. The transgenic mouse was tested with regard to the effect of overexpression of wild type full-length phosducin on the development of heart failure in a murine disease model.

[4] = tested on: Gβγ-dependent signalling pathways; experiment: IP3 assay: inhibition of Gβγ-mediated effects in adenovirus-infected cardiomyocytes; type: cell-based, rabbit; conditions: response to 1 μmol/L bradykinin or 10 μmol/l acetylcholine, 1 minute, vs Ad-GFP
Method: For IP3 assays, adenovirus-infected cardiomyocytes were stimulated with the respective agonists for 1 minute, and the reaction was stopped by adding perchloric acid (4%) and scratching the cells off. They were centrifuged at 2000×g, and then […] of KOH (10 mol/L) was added. The solution was resuspended and centrifuged again, and the protein content of each sample was determined by the method of Bradford (1976) Anal. Biochem. 72, 248-254. The supernatant was used for an assay kit using ^3H-inositol-(1,4,5)-trisphophate and a binding protein (Amersham, cat. no. TRK 1000) to measure IP3 formation, following the manufacturer's instructions.
For IP3 assays, cardiomyocytes infected with Ad-GFP or Ad-nt-del-phosducin-GFP (Example 1) were stimulated with 1 μmol/L bradykinin or 10 μmol/l acetyl choline, for 1 minute. In addition, basal levels were determined in the absence of agonists. Then the reaction was stopped by adding perchloric acid (4%) and scratching the cells off. They were centrifuged at 2000×g, and then 10 μl of KOH (10 mol/L) was added. The solution was resuspended and centrifuged again, and the protein content of each sample was determined by the method of Bradford^22. The supernatant was used for an assay kit using ^3H-inositol-(1,4,5)-trisphophate and a binding protein (Amersham, cat. no. TRK 1000) to measure IP3 formation, following the manufacturer's instructions. […]

[5] = tested on: cardiomyocytes isolated from failing hearts; experiment: Single cell contraction after ex vivo adenoviral gene transfer, failing cardiomyocytes; type: cell-based, rabbit
Method: (§2) Recombinant (E1/E3-Deficient) flag-tagged adenovirus for nt-del-phosducin (Ad-nt-del-phosducin-GFP) was generated, expressing the transgene and green fluorescence protein (GFP) under the control of two independent CMV promoters in a bi-cistronic system (He et al. (1998) Proc Natl Acad Sci USA 95, 2509-14). As a control, Ad-GFP without further transgenes was used. Large virus stocks were prepared as described previously (Laugwitz et al. (1999) Circulation 99, 925-933). Adenoviral titers were determined using plaque titration and GFP expression titration in non E1-expressing cells.
as §1
(§3) Single cell contraction after adenovirus delivery: Contractility of infected cardiomyocytes was measured by an electro-optical monitoring system connected to online digitalized assessment of amplitude and velocity of shortening and of relaxation as described before (Laugwitz et al. (2001) Circ Res. 88, 688-95). After the contraction amplitude reached stability, increasing concentrations of isoproterenol were applied.

[6] = tested on: rabbits with heart failure; experiment: Pacing-induced heart failure after in vivo adenoviral gene transfer: tip catheterization and echocardiography; set-up: species or system New Zealand White rabbits
From the text: Model of Heart Failure: Medtronic pacemakers were implanted into New Zealand White rabbits (weight 3.6±0.3 Kg; from Harlan, Munich, Germany). Two days afterwards, rapid pacing was initiated at 320 beats/min. Under this protocol, a tachycardia-induced heart failure (HF) develops reproducibly over one week. Pacing was then continued at 360 beats/min, which predictably led to a further deterioriation of heart failure. The average contractility in failing hearts was 2200±320 mmHg/sec (vs. 4000±390 mmHg/sec in healthy controls; p<0.05), and LVEDP increased from 3.6±0.4 mmHg to 13.5±1.2 (p<0.05).
Adenoviral Gene Transfer To Rabbit Myocardium: After the first week of rapid pacing, all rabbits received catheter-based adenoviral gene transfer (5×10^9 pfu) to the myocardium as described before (Weig et al. (2000) Circulation 101, 1578-1585). For the intervention, the rabbitswere anesthetized with fentanyl and propofol.
Myocardial Contractility Measurement by Echocardiography and Intraventricular Tip Catheterization: Left ventricular contractility was examined before the initiation of rapid pacing, before adenoviral gene transfer, and at the end of the protocol (two weeks after the start of pacing and one week after gene transfer). The rabbits were anesthetized as described before; ECG was monitored continuously.
For echocardiography, a 7.5 MHz probe was fixed on a tripod. Standard sections were recorded, which were well reproducible. For tip catheter measurements, a Millar 3F tip catheter connected to a differentiating device was placed in the left ventricle. After definition of basal contractility and left ventricular pressure, 200 μL of NaCl (0.9%) was injected as a negative control. Isoproterenol was infused at increasing doses. After a sufficient equilibration period, tip catheter measurements were carried out.
Improvement of LV dysfunction in pacing-induced heart failure after adenovirus delivery: Ad-GFP and Ad-nt-del-phosducin-GFP were directly delivered to rabbit hearts after 1 week of rapid pacing, and hemodynamic parameters were measured after another week of pacing at 360 bpm. […]

[7] = tested on: cardiomyocytes isolated from healthy hearts; experiment: Single cell contraction after ex vivo adenoviral gene transfer, healthy cardiomyocytes; type: cell-based, rabbit
Method: as §2, §1, §3

## CC(C)NCC(O)c1ccc(O)c(O)c1 (stereo not drawn) [isoproterenol, reference compound]
[1]; isoproterenol stimulation, all groups, FIG. 3
  intracellular cAMP content: increased

B1: full-length phosducin: Wild type full-length phosducin, Gβγ binding protein; overexpressed in transgenic mouse hearts (protein)
chain: MEEAKSQSLEEDFEGQATHTGPKGVINDWRKFKLESQDSDSIPPSKKEILRQMSSPQSRNGKDSKERVSRKMSIQEYELIHKEKEDENCLRKYRRQCMQDMHQKLSFGPRYGFVYELETGKQFLETIEKELKITTIVVHIYEDGIKGCDALNSSLTCLAAEYPIVKFCKIKASNTGAGDRFSLDVLPTLLIYKGGELISNFISVAEQFAEEFFAGDVESFLNEYGLLPEREVHVLEHTKIEEEDVE
[2]
  maximal βAR-dependent adenylyl cyclase stimulability: significantly decrease
[3]
  degree of heart failure (histologically: myocyte hypertrophy and fibrosis of heart sections): no observable differences

B2: nt-del-phosducin: N-terminal truncated human phosducin variant of SEQ ID No: 2 (52 N-terminal amino acids deleted), expressed from adenovirus Ad-nt-del-phosducin-GFP (protein, listed as Homo sapiens)
chain: MSSPQSRDDKDSKERFSRKMSVQEYELIHKDKEDENCLRKYRRQCMQDMHQKLSFGPRYGFVYELESGEQFLETIEKEQKITTIVVHIYEDGIKGCDALNSSLICLAAEYPMVKFCKIKASNTGAGDRFSSDVLPTLLVYKGGELLSNFISVTEQLAEEFFTGDVESFLNEYGLLPEKEMHVLEQSNMEEDME
modifications: GFP expressed via adenovirus
[1]; 48 hours after infection, isoproterenol 20 minutes, vs GFP, did not reach statistical significance
  cAMP formation in response to isoproterenol: trend towards decreased cAMP formation
[4]
  intracellular IP3 formation: reduced
[5]; failing cardiomyocytes, FIG. 5B
  maximal contraction amplitude in response to isoproterenol: enhanced
[5]; failing cells
  shift of isoproterenol concentration-response curve: significantly shifted to the left
[5]; failing cells, infected ex vivo, Hill equation fit
  Emax of fractional shortening in response to isoproterenol: 7.8±0.1
[6]; change during the second week of rapid pacing (before gene transfer vs end of experiment)
  LV fractional shortening (FS) by serial echocardiography: did not change
[6]; one week after gene transfer, in response to isoproterenol, vs Ad-GFP-infected control group
  first derivative of LV pressure (dp/dt max): significantly higher
[6]; one week after gene transfer, vs Ad-GFP-infected control group
  increase in systolic LV pressure in response to isoproterenol: significantly higher
[7]; compared to Ad-GFP-infected control cells, FIG. 5A
  basal and maximal contractility in response to isoproterenol: markedly increased
[7]; compared with contraction amplitude results, normal and failing cardiomyocytes
  shortening velocity: Very similar results
[7]; healthy cells, infected ex vivo, Hill equation fit
  Emax of fractional shortening in response to isoproterenol: 11.2±0.2
[7]; normal cells
  shift of isoproterenol concentration-response curve: significantly shifted to the left
